Source: US20220251522

Biological target: T1, PoSP:SGSH^OPT:His
T1 chain: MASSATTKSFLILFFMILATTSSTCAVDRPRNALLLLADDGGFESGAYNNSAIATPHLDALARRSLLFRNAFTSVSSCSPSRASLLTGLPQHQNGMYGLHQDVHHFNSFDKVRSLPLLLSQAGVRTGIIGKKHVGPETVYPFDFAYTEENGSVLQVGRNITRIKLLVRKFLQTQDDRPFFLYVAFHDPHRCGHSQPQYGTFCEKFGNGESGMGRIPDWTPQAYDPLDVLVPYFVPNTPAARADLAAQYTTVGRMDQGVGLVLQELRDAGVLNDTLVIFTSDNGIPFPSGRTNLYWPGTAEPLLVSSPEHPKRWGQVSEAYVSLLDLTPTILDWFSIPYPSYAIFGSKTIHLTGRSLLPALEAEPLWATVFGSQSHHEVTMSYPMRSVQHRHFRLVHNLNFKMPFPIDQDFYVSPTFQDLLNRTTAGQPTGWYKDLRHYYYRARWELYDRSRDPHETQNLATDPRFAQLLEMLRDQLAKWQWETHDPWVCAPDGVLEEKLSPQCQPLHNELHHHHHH

B1: PoSP:SUMF1^OPT:His:KDEL (protein)
chain: MASSATTKSFLILFFMILATTSSTCAVDSQEAGTGAGAGSLAGSCGCGTPQRPGAHGSSAAAHRYSREANAPGPVPGERQLAHSKMVPIPAGVFTMGTDDPQIKQDGEAPARRVTIDAFYMDAYEVSNTEFEKFVNSTGYLTEAEKFGDSFVFEGMLSEQVKTNIQQAVAAAPWWLPVKGANWRHPEGPDSTILHRPDHPVLHVSWNDAVAYCTWAGKRLPTEAEWEYSCRGGLHNRLFPWGNKLQPKGQHYANIWQGEFPVTNTGEDGFQGTAPVDAFPPNGYGLYNIVGNAWEWTSDWWTVHHSVEETLNPKGPPSGKDRVKKGGSYMCHRSYCYRYRCAARSQNTPDSSASNLGFRCAADRLPTMDHHHHHHKDEL
- sulfamidase enzymatic activity: plant-made SGSH (S4 and S12) were enzymatically active only when SUMF1 was co-expressed
